Results on 2 molecules are retold here after publication PMC12533369, “Citrullination of AKT2 Catalyzed by PAD1 Facilitates the Maintenance of Stemness Characteristics of Ovarian Cancer Stem‐Like Cells in Ovarian Cancer” (Advanced Science, 2025).

For the assay, the target named is T1, GST-tagged PAD1 (human, UniProt Q9ULC6 1-663).
T1 construct: peptidylarginine deiminase 1 (PAD1), recombinant human; also called GST-PAD1; recombinant human PAD1; source: recombinant
T1 sequence (looked up): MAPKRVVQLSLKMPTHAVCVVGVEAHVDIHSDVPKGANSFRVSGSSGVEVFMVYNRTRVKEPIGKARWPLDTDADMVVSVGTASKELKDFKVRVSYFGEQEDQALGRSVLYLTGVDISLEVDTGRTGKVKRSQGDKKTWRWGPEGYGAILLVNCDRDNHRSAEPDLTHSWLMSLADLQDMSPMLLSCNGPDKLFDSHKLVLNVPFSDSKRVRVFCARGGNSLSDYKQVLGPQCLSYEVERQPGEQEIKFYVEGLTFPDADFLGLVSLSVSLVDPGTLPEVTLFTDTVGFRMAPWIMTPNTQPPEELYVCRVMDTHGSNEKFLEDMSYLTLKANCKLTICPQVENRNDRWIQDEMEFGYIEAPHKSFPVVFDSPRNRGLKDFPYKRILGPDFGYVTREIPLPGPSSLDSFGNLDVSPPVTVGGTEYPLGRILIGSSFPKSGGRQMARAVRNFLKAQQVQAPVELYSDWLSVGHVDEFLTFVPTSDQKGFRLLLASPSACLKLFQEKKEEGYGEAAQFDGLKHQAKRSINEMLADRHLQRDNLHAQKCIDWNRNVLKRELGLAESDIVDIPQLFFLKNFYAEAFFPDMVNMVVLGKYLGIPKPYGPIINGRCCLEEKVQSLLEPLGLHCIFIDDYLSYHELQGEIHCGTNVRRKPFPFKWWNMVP
Nature of the assay: pull-down; GST pull-down: purified His-tagged AKT2 (full length or truncated) incubated with GST-tagged PAD1 or GST alone. Particulars: both partners purified.

B1: His-tagged full-length AKT2 (enzyme, UniProt P31751 1-481, looked up)
chain: MNEVSVIKEGWLHKRGEYIKTWRPRYFLLKSDGSFIGYKERPEAPDQTLPPLNNFSVAECQLMKTERPRPNTFVIRCLQWTTVIERTFHVDSPDEREEWMRAIQMVANSLKQRAPGEDPMDYKCGSPSDSSTTEEMEVAVSKARAKVTMNDFDYLKLLGKGTFGKVILVREKATGRYYAMKILRKEVIIAKDEVAHTVTESRVLQNTRHPFLTALKYAFQTHDRLCFVMEYANGGELFFHLSRERVFTEERARFYGAEIVSALEYLHSRDVVYRDIKLENLMLDKDGHIKITDFGLCKEGISDGATMKTFCGTPEYLAPEVLEDNDYGRAVDWWGLGVVMYEMMCGRLPFYNQDHERLFELILMEEIRFPRTLSPEAKSLLAGLLKKDPKQRLGGGPSDAKEVMEHRFFLSINWQDVVQKKLLPPFKPQVTSEVDTRYFDDEFTAQSITITPPDRYDSLGLLELDQRTHFPQFSYSASIRE
notes: AKT2, full length; whether 'human' also covers AKT2 is not clear; also called His-AKT2 (full length); source: purified
For B1, the binding result is reported as “binds”.

B2: His-AKT2 (kinase domain) (domain or fragment, UniProt P31751 152-481, looked up)
chain: FDYLKLLGKGTFGKVILVREKATGRYYAMKILRKEVIIAKDEVAHTVTESRVLQNTRHPFLTALKYAFQTHDRLCFVMEYANGGELFFHLSRERVFTEERARFYGAEIVSALEYLHSRDVVYRDIKLENLMLDKDGHIKITDFGLCKEGISDGATMKTFCGTPEYLAPEVLEDNDYGRAVDWWGLGVVMYEMMCGRLPFYNQDHERLFELILMEEIRFPRTLSPEAKSLLAGLLKKDPKQRLGGGPSDAKEVMEHRFFLSINWQDVVQKKLLPPFKPQVTSEVDTRYFDDEFTAQSITITPPDRYDSLGLLELDQRTHFPQFSYSASIRE
notes: AKT2 residues 152-481, the truncated variant that the text calls the kinase domain; also called His-tagged AKT2 (152–481 aa); source: purified
Turning to B2, the binding result is reported as “binds”.
